Target: T1, human NOTCH3 extracellular domain (human, UniProt Q9UM47 40-1643)
T1 construct: In the tissue IHC the target is endogenous NOTCH3 in tumor sections; also called NOTCH3 ECD
Experiment: screening by FACS, Western blot and IHC on FFPE pellets of HEK-293 cells transiently transfected with NOTCH ECD constructs
From the text: Screening was first done by FACS, followed by Western blot analyses and then in IHC assays using HEK-293 cells transiently transfected with NOTCH1, NOTCH2, NOTCH3, or NOTCH4 ECD constructs. Starting with 68 supernatants from hybridoma cells, seven candidate antibodies were selected for further testing and optimization in IHC assays, 122M23, 122M25, 122M26, 122M27, 122M35, 122M36, and 122M40. […] The desired antibody needed to be specific for NOTCH3 ECD, so the staining had to be predominantly membrane localized, with minimal or no detectable background non-specific staining in transiently transfected cell pellets in FFPE format. In addition, the antibody had to give appropriate results on positive and negative control tissues.

T1 sequence (Q9UM47 40-1643 limits assumed): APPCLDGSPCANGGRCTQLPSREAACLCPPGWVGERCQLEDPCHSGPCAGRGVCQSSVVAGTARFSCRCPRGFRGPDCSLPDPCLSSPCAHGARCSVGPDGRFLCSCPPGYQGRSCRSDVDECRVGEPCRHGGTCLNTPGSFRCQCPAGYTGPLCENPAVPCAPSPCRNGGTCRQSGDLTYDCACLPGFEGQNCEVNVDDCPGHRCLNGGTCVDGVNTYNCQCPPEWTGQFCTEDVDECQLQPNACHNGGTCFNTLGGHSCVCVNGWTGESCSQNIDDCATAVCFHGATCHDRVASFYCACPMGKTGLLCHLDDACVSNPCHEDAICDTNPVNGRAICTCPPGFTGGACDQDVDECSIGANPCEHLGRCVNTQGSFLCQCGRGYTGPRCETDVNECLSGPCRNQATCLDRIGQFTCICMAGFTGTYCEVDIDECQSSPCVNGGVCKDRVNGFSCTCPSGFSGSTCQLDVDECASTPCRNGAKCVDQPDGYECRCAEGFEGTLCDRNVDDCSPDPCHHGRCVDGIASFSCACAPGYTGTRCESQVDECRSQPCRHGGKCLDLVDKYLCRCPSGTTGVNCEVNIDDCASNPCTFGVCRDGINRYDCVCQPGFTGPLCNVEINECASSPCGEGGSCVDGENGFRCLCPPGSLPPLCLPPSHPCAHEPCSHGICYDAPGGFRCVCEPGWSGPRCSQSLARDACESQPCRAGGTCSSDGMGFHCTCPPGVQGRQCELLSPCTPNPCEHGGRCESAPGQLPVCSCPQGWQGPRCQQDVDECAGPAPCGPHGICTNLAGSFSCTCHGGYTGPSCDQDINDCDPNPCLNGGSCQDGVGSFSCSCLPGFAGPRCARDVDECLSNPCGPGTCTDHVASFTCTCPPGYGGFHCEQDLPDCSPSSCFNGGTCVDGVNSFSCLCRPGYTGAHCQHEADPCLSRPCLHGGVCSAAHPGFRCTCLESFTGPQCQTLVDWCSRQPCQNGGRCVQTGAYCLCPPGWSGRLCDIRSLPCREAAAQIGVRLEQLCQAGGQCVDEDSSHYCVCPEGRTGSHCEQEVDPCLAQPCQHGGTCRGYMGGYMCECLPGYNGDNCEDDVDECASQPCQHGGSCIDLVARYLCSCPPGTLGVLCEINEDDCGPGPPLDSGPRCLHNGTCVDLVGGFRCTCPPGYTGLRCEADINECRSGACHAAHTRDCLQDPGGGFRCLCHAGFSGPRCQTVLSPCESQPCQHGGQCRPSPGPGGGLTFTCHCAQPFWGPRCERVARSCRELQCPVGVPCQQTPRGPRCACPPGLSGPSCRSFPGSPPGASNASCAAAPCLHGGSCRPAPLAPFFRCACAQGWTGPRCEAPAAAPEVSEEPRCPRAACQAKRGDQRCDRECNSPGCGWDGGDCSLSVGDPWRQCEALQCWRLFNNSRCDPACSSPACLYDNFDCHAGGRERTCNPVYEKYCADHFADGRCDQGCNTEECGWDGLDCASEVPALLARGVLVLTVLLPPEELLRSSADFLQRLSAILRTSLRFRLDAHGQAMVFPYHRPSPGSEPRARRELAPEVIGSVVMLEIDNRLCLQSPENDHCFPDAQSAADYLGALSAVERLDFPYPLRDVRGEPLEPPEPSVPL

B1: anti-NOTCH3 antibody 122M23 (antibody, V domains shown)
VH: QVQLQQSGAELARPGASVKMSCKASGYTFTKYTIHWVAQKPGQGLEWIGYINPSNDYTNYNQTFKDKATLTADKSSTTAYMQLISLTSADSTVFYCARGTTPYSLDYWGQGTSVTVSS
VL: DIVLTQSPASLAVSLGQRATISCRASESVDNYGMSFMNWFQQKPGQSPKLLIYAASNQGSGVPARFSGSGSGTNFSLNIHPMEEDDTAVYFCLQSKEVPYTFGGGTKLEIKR
notes: Murine monoclonal antibody from a hybridoma (ATCC PTA-121154); also called murine monoclonal antibody 122M23
B1: binds.
